Laboratory results: publication PMC11629876

What was measured:
Experiment in all cases: ELISA; dose response: host component coated, recombinant protein added at increasing concentrations, 2 h 37°C; detected with mouse antiserum; KD by non-linear regression, one site-specific binding (GraphPad Prism)
[1] = molecular target: plasminogen (human plasma) (human)
[2] = molecular target: cellular fibronectin (human foreskin fibroblasts) (human)
[3] = molecular target: collagen I (rat tail) (rat) (UniProt P02454)
integrin α5β1 = integrin α5β1 (UniProt P08648)
integrin α8β1 = integrin α8β1 (UniProt P53708)
integrin αVβ1 = integrin αVβ1 (UniProt P06756)
integrin αVβ3 = integrin αVβ3 (UniProt P06756)
integrin αVβ5 = integrin αVβ5 (UniProt P06756)
integrin αVβ6 = integrin αVβ6 (UniProt P06756)
[4] = molecular target: plasma fibronectin (human plasma) (human)
[5] = molecular target: vitronectin (human plasma) (human)

Sequence of integrin α8β1 (P53708 39-1063, chain 1 of 2): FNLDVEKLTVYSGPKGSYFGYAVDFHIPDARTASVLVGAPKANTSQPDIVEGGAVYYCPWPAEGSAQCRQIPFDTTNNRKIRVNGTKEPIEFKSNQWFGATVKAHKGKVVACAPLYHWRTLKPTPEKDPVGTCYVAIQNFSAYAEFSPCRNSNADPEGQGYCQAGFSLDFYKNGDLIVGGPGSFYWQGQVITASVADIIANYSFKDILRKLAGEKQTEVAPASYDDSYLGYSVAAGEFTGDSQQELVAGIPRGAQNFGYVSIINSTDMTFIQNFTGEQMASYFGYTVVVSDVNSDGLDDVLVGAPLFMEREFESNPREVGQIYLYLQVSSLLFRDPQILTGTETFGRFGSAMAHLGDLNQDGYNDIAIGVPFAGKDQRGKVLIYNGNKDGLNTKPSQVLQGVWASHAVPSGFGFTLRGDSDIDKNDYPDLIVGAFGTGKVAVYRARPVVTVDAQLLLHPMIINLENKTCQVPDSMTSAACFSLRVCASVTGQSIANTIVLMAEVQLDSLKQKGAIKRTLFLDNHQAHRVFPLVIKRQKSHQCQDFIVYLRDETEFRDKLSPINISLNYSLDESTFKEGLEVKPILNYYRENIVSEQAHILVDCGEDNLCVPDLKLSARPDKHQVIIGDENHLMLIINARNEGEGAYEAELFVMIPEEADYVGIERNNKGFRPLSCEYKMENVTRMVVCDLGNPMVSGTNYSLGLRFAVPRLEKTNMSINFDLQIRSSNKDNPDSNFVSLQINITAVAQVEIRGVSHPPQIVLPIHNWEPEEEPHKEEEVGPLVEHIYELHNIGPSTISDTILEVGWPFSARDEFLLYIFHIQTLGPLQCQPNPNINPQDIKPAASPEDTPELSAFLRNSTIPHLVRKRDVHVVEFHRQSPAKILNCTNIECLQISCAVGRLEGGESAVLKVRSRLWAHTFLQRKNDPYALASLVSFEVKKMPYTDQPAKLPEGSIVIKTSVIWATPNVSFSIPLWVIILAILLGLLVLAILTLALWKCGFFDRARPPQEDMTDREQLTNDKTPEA
Sequence of integrin α8β1 (P05556 21-728, chain 2 of 2, further chain): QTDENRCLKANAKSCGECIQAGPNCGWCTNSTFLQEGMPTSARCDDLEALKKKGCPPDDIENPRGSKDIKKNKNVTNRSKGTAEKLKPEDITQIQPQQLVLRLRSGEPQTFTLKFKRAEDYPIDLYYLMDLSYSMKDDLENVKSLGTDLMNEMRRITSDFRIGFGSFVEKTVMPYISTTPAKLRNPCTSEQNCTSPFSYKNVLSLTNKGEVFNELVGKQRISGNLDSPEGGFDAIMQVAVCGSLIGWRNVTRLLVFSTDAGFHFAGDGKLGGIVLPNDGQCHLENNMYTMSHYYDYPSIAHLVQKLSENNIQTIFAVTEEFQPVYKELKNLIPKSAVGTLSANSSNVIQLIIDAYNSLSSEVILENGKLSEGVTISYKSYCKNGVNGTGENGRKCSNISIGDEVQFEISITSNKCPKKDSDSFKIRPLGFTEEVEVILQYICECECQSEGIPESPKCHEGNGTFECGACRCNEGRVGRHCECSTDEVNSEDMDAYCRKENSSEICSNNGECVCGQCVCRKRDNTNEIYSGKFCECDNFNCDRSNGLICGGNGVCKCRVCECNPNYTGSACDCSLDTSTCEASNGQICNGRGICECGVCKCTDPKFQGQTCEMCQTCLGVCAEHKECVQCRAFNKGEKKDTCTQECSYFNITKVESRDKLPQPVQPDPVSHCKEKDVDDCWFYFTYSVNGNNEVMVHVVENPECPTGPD
Sequence of integrin αVβ3 (P06756 31-1048, chain 1 of 2): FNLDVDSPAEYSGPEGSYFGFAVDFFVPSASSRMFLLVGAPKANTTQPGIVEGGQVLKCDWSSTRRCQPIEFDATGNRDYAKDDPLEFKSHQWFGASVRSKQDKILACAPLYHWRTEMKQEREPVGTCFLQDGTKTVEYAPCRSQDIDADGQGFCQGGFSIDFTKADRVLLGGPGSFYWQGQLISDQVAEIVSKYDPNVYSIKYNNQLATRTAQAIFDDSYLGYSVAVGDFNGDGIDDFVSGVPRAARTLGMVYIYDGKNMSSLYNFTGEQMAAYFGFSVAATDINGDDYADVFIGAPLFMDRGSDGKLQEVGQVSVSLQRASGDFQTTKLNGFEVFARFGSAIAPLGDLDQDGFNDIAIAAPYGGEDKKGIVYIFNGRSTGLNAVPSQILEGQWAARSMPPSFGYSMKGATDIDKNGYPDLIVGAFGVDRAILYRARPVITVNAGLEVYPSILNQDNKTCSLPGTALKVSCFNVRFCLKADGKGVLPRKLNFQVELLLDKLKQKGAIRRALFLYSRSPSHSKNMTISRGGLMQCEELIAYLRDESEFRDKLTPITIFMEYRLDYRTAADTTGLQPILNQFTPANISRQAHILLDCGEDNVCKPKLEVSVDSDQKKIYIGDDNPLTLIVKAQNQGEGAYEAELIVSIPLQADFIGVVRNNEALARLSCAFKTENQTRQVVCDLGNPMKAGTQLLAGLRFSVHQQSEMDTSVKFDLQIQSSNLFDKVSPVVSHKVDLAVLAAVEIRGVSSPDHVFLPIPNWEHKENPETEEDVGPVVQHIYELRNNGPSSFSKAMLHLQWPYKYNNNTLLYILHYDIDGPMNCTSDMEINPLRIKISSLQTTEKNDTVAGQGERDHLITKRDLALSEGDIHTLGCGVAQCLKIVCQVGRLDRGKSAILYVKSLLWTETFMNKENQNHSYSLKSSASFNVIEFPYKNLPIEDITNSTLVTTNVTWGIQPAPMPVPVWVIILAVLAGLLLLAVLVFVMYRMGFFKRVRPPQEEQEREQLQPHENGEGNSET
Sequence of integrin αVβ3 (P05106 27-718, chain 2 of 2, further chain): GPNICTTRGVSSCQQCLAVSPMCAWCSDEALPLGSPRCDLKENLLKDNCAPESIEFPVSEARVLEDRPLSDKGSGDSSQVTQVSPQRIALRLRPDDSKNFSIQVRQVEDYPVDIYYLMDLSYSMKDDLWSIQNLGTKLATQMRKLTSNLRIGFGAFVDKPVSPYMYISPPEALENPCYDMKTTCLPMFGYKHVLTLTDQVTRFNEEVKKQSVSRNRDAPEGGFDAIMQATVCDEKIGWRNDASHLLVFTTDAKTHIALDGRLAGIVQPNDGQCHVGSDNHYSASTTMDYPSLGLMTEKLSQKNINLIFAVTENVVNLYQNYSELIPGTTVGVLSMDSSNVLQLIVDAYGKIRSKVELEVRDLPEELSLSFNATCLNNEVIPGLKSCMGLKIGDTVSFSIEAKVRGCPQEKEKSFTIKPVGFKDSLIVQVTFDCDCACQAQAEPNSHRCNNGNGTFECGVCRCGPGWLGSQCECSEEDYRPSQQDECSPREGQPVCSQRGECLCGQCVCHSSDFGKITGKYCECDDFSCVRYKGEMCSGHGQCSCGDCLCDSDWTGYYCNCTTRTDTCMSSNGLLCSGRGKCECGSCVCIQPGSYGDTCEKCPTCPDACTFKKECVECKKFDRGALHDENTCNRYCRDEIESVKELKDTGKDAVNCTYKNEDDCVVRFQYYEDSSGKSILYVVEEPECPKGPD
Sequence of integrin αVβ1 (P06756 31-1048, chain 1 of 2): as the sequence (P06756 31-1048, chain 1 of 2) above
Sequence of integrin αVβ1 (P05556 21-728, chain 2 of 2, further chain): as the sequence (P05556 21-728, chain 2 of 2, further chain) above
Sequence of integrin αVβ5 (P06756 31-1048, chain 1 of 2): as the sequence (P06756 31-1048, chain 1 of 2) above
Sequence of integrin αVβ5 (P18084 24-719, chain 2 of 2, further chain): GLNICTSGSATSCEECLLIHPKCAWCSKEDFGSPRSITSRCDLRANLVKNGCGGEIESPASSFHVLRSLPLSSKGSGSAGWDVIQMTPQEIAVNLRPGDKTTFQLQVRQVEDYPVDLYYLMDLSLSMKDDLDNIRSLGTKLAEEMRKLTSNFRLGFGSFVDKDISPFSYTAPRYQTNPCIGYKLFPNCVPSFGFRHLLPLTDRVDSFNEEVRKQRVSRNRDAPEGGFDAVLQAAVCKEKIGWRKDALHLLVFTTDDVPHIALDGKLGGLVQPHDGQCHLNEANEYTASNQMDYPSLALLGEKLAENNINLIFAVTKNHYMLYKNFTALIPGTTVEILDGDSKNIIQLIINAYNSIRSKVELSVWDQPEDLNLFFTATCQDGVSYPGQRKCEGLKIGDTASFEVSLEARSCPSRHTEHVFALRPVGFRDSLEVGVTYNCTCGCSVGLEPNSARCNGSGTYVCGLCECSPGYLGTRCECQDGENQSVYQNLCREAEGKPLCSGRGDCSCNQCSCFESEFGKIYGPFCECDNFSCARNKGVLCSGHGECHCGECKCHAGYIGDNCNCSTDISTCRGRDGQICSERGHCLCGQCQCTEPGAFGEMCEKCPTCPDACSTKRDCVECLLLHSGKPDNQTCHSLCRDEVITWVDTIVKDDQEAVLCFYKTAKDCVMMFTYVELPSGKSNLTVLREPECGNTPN
Sequence of integrin αVβ6 (P06756 31-1048, chain 1 of 2): as the sequence (P06756 31-1048, chain 1 of 2) above
Sequence of integrin αVβ6 (P18564 22-709, chain 2 of 2, further chain): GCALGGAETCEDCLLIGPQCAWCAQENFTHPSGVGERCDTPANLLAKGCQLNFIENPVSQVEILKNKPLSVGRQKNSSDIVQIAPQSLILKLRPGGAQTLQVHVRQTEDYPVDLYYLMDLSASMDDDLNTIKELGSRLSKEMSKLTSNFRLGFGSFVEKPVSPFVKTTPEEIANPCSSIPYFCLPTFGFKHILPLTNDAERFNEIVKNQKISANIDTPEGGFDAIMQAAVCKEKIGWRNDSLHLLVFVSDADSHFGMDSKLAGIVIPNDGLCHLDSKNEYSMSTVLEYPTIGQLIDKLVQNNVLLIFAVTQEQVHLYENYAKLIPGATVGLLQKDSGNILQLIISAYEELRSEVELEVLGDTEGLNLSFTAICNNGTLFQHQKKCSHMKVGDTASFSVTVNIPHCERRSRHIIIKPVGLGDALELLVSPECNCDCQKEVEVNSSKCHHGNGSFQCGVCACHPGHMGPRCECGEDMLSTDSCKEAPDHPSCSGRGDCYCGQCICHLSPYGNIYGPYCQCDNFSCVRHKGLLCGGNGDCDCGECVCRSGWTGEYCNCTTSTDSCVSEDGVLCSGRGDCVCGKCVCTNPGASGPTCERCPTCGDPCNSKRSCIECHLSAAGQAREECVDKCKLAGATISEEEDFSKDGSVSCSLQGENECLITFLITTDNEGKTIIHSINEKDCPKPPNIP

| Substance | Kd [1] [nM] | Kd [2] [nM] | Kd [3] [nM] | Kd (integrin α5β1) [nM] | Kd (integrin α8β1) [nM] | Kd (integrin αVβ1) [nM] | Kd (integrin αVβ3) [nM] | Kd (integrin αVβ5) [nM] | Kd (integrin αVβ6) [nM] | Kd [4] [nM] | Kd [5] [nM] |
| --- | --- | --- | --- | --- | --- | --- | --- | --- | --- | --- | --- |
| recombinant LIC11051 (rLIC11051), leucine-rich repeat protein of Leptospira interrogans serovar Copenhageni (natural protein) | 42.6 |  |  |  |  |  |  |  |  |  |  |
| recombinant LIC11505 (rLIC11505), leucine-rich repeat protein of Leptospira interrogans serovar Copenhageni (natural protein) | 24.2 | 20.1 | 80 | 73.4 | 191 | 134 | 152 | 109 | 74.9 | 51.1 | 64.8 |
